Like-named read-outs stand apart in the source and are kept apart here.
Experiments:
Assay in all cases: cell-based or functional assay
[1] = molecular target: hNav1.7 (human), Q15858
[2] = molecular target: Cav2.2
[3] = molecular target: hNav1.2 (human), Q99250
[4] = molecular target: hNav1.5 (human), Q14524
[5] = molecular target: Cav1.3
[6] = molecular target: hNav1.3 (human), Q9NY46
[7] = molecular target: Nav1.8
[8] = molecular target: hNav1.1 (human), P35498
[9] = molecular target: hNav1.4 (human), P35499
[10] = molecular target: Kv2.1
[11] = molecular target: Nav1.9
[12] = molecular target: Cav1.1
[13] = molecular target: hNav1.6 (human), Q9UQD0
[14] = molecular target: T1, hERG, Q12809
T1 chain: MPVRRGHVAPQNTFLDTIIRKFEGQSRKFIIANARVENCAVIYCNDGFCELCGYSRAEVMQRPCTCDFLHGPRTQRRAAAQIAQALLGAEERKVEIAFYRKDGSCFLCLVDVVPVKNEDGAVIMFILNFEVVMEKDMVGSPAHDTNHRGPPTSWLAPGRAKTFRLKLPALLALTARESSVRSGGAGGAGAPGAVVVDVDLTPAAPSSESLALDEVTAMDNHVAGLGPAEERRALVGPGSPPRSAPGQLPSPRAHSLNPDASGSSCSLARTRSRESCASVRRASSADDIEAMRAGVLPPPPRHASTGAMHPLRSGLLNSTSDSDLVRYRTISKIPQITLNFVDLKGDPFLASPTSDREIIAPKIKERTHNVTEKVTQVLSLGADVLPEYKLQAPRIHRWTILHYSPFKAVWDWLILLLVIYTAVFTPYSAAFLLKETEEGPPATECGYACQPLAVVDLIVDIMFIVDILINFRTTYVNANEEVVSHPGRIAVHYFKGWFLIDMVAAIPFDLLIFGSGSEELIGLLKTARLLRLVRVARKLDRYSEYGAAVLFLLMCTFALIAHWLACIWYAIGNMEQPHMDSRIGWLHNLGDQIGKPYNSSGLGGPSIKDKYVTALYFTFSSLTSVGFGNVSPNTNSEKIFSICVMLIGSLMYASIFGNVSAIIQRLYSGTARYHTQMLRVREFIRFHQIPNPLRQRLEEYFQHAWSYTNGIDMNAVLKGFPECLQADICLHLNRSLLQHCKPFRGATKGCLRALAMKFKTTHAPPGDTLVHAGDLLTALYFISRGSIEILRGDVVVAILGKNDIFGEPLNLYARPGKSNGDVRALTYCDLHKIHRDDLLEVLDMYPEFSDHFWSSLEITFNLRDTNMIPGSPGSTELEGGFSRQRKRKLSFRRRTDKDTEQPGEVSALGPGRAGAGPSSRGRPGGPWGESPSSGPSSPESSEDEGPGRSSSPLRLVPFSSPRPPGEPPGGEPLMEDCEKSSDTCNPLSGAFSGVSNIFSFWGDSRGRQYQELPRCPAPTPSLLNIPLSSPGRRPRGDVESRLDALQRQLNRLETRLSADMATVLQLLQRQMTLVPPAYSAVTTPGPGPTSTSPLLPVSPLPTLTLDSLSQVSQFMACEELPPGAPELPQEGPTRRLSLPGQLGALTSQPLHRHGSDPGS

[15] = molecular target: hNav1.7 (human), Q15858; remark: listed apart in the source
[16] = molecular target: hNav1.6 (human), Q9UQD0; remark: listed apart in the source

Binder: YCQKFLWTCDSERPCCEGLVCRLWCKIN (modifications not checked) [Hsp1a-FL]
- IC50, automated whole-cell patch clamp [1]: 62 nM

Binder: GNDCLGFWSACNPKNDKCCANLVCSSKHKWCKGKL (modifications not checked) [Hs1a]
- IC50 [2]: > 3000 nM
- IC50, automated patch clamp [3]: 82.2 nM
- IC50, automated patch clamp [4]: > 3000 nM
- IC50 [5]: > 3000 nM
- IC50, automated patch clamp [6]: 107 nM
- IC50 [7]: > 3000 nM
- IC50, automated patch clamp [8]: 19.4 nM
- IC50, automated patch clamp [1]: 45.7 nM
- IC50, automated patch clamp [9]: > 3000 nM
- IC50 [10]: > 3000 nM
- IC50 [11]: > 3000 nM
- IC50 [12]: > 3000 nM
- IC50, automated patch clamp [13]: 168 nM
- IC50 [14]: > 3000 nM
- IC50, automated patch clamp [15]: 26.9 nM
- IC50, automated patch clamp [16]: 19.2 nM

Binder: GNDCLGFWSACNPKNDKCCANLVCSSKHKWCKGKL (modifications not checked) [Hs1a-FL]
- IC50, patch clamp on HEK293 cells [3]: 81.2 nM
- IC50, patch clamp on HEK293 cells [4]: > 3000 nM
- IC50, patch clamp on HEK293 cells [6]: 107 nM
- IC50, patch clamp on HEK293 cells [8]: 19.4 nM
- IC50, patch clamp on HEK293 cells [1]: 26.9 nM
- IC50, patch clamp on HEK293 cells [9]: > 3000 nM
- IC50, patch clamp on HEK293 cells [13]: 19.2 nM
